Experimental data published in IntAct's records for PubMed 9753447.

B1: Ferredoxin--NADP reductase (Anabaena sp. (strain PCC 7119)), P21890 (parent)
chain: MSNQGAFDGAANVESGSRVFVYEVVGMRQNEETDQTNYPIRKSGSVFIRVPYNRMNQEMQRITRLGGKIVTIQTVSALQQLNGRTTIATVTDASSEIAKSEGNGKATPVKTDSGAKAFAKPPAEEQLKKKDNKGNTMTQAKAKHADVPVNLYRPNAPFIGKVISNEPLVKEGGIGIVQHIKFDLTGGNLKYIEGQSIGIIPPGVDKNGKPEKLRLYSIASTRHGDDVDDKTISLCVRQLEYKHPESGETVYGVCSTYLTHIEPGSEVKITGPVGKEMLLPDDPEANVIMLATGTGIAPMRTYLWRMFKDAERAANPEYQFKGFSWLVFGVPTTPNILYKEELEEIQQKYPDNFRLTYAISREQKNPQGGRMYIQDRVAEHADELWQLIKNQKTHTYICGLRGMEEGIDAALSAAAAKEGVTWSDYQKDLKKAGRWHVETY
partner: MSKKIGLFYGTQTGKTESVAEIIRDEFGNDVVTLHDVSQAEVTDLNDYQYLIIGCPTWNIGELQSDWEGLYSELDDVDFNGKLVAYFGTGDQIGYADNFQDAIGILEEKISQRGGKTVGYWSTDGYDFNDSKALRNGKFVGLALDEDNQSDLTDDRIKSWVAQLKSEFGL
B2: Ferredoxin--NADP reductase (Anabaena sp. (strain PCC 7119)), P21890 (parent)
chain: B1 chain

Variants of: B1
Conditions: with flav_nosso isiB

effect of a mutation on the interaction	Variant
decreasing interaction	K206S
decreasing interaction	K206E
decreasing interaction	K206Q

Variants of: B2
Conditions: with fer1_nosso petF

effect of a mutation on the interaction	Variant
decreasing interaction	K206E
decreasing interaction	K206S
decreasing interaction	K206Q
